Assay results from publication doi:10.1101/2019.12.24.886648.

Molecular target: endogenous Sec22b (rat) (rat (endogenous in PC12 and in rat hippocampal neurons)) (UniProt Q4KM74)
Experiment: proximity ligation

Chain of UniProt Q4KM74 (Q4KM74 whole entry): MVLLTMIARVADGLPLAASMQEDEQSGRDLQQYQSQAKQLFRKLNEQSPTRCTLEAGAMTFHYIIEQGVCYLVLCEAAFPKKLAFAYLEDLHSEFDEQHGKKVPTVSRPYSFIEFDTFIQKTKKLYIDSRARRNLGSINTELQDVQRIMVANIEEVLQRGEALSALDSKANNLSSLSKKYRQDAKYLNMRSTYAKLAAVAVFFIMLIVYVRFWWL

With “endogenous E-Syt2 (rat hippocampal neurons) (natural protein)” the PLA signal normalized for the area, cell bodies was 2.85%, the PLA signal normalized for the area, growth cones was 7.64% and the PLA signal normalized for the area, neurites was 5.53%.
